Data: the Human Domainome abundance scans (Beltran et al. 2025)

B1: Glucocorticoid receptor, residues 419 to 494; numbered along this chain, P04150 (parent)
chain: KLCLVCSDEASGCHYGVLTCGSCKVFFKRAVEGQHNYLCAGRNDCIIDKIRRKNCPACRYRKCLQAGMNLEARKTK

Variants of: B1
Experiment: abundance fitness (aPCA) (normalised: wild type 0, dead -1); higher = more abundant; growth selection in yeast, the domain comes from the species named
Details: Homo sapiens

Abundance fitness: each site, then its substitutions
C45: K -1.27; E -0.762; Y -0.704; V -0.698; M -1.18; P -1.02; F -0.649; I -0.948; A -0.797; Q -0.558; W -0.932; L -0.917; T -0.99; H -0.168; R -0.778
G33: N 0.115; I -0.121; M -0.052; W -0.135; P -0.265; F -0.052; Q -0.017; T -0.139; L -0.093; S -0.045; R -0.048; Y 0.035; V -0.044; K 0.034; H -0.006
R52: L -0.048; V -0.056; G -0.016; W -0.112; E -0.028; C 0.051; A -0.051; P -0.203; T -0.129; S -0.12; K -0.03; M -0.101; I -0.093
C39: Q -0.586; H -0.575; R -0.976; I -1; M -0.998; E -0.641; K -0.787; T -0.553; V -1; S -0.927; D -0.863; N -0.603; W -0.992; L -0.923; Y -0.951; G -0.716; P -0.585; F -0.603
R51: C -0.215; N -0.031; W -0.083; G 0.009; T -0.016; I -0.134; S -0.023; A -0.072; V -0.068; Q -0.002; L -0.031; M 0.042; F 0.051; P -0.136
L38: H 0.035; C -0.03; Q -0.024; T -0.035; I -0.043; P -0.155; N 0.02; S -0.035; V 0.058; D 0.102; F 0.018; M 0.02; Y -0.035; G -0.059; A 0.01; K 0.033; E 0.012
K49: H -0.045; L -0.054; P 0.016; E -0.097; R -0.004; Y -0.077; S -0.037; D -0.164; C 0.045; W -0.129; F -0.019; V 0.024; T -0.001; M -0.021; Q -0.033; N -0.06
K53: A 0.014; C -0.263; D 0.083; E 0.058; F -0.033
Y37: F 0.011; K -0.122; E -0.107; N -0.026; M 0.013; R -0.211; C -0.299; G -0.074; D -0.144; Q -0.137; L -0.003; P -0.104; V -0.116; I -0.08; H -0.117; T -0.084
Q34: Y -0.136; K -0.035; N 0.08; T -0.064; R 0.002; M 0.017; E -0.051; P -0.114; H -0.14; F -0.256; W -0.136; C -0.028; D -0.046; L -0.099; A -0.016; V -0.073; I -0.188
A40: N -0.024; V 0.019; L -0.065; C -0.137; T -0.067; H -0.192; F -0.088; M -0.058; W -0.079; R -0.043; Y -0.032; D -0.136; P -0.066; I -0.038; E -0.048; G -0.04; Q 0.012
N43: K 0.013; V -0.285; D -0.008; S -0.044; Y -0.008; P -0.575; E 0.011; C -0.193; I -0.233; Q 0.028; L -0.123; A -0.027; T -0.134; G -0.024; F -0.02; R -0.052; W -0.056
R42: C -0.064; E 0.011; I -0.062; G 0.009; D 0.06; M -0.024; F 0.077; W -0.077; S 0.001; L 0.012; A 0.01; V 0.033; Q 0.127; H -0.011; N 0.093; K 0.106; Y -0.065; T 0.036
I46: S 0.005; L -0.039; W -0.137; A 0.031; H -0.045; P -0.048; Y 0.029; R -0.012; F 0.087; T 0.029; E -0.009; C -0.025; N -0.002; Q 0.064; V -0.027
D44: M 0; S -0.08; Y -0.37; I -0.344; G -0.145; E 0.032; V -0.053; T -0.023; F -0.381; R -0.088; K -0.062; H -0.11; W -0.423; Q -0.026; L -0.189; N -0.073; A -0.014; C 0.009; P -0.323
H35: I -0.071; W -0.074; C -0.128; Y -0.08; Q -0.044; D 0.005; K -0.002; N 0.11; L -0.025; P 0.003; A 0.018; V -0.027; S -0.114; G 0.024; R -0.044; F 0.013; M 0.018
N36: H -0.042; C -0.133; P -0.05; W -0.151; Q -0.034; M 0.008; G -0.057; Y -0.259; I -0.054; T -0.008; L -0.036; D -0.065; F -0.006; A -0.012; K 0.038; S 0.022; V -0.106; E 0.002
I50: W -0.02; D -0.032; L 0.046; T -0.007; E -0.028; Y -0.143; G 0.009; P 0.081; A -0.004; S 0.015; R 0.005; M 0.055; N -0.018; Q 0.046; V 0.013; H -0.153
D48: W -0.415; N 0.024; C -0.529; K -0.487; H -0.449; V -0.596; L -0.437; A -0.327; P -0.591; Q -0.385; T -0.045; E -0.072; Y -0.139; I -0.579; S -0.142; R -0.536; G -0.334
G41: M -0.004; W -0.017; K 0.011; Y -0.123; I -0.101; Q -0.055; V -0.051; C -0.005; E -0.043; R 0.02; T -0.04; L -0.013; A -0.016; D -0.049; S -0.031; N 0.032
I47: K -0.267; T -0.125; S -0.252; F -0.449; R -0.406; D -0.072; N -0.164; C -0.438; H -0.304; Q -0.183; E -0.216; L -0.135; W -0.542; V 0.015; P -0.442; G -0.304; M -0.143; A -0.368
